Each block holds one binder with its values, some of them ahead of it.
Key:
[1] = target: T1, human MSLN-R2-his protein (human, UniProt Q13421 391-486); assay: ELISA, antibody 1 nM
T1 construct: MSLN-R2 = Ser391-Asn486; also called hMSLN-R2-his; not shown: histidine tag

[2] = target: T2, human MSLN-R3-his protein (human, UniProt Q13421 487-598); assay: ELISA, antibody 1 nM
T2 construct: MSLN-R3 = Met487-Ser598; also called hMSLN-R3-his; not shown: histidine tag

[3] = target: T1, human MSLN-R2-his protein; assay: ELISA, antibody 1 nM; remark: listed apart in the source
[4] = target: T2, human MSLN-R3-his protein; assay: ELISA, antibody 1 nM; remark: listed apart in the source
[5] = target: T3, human MSLN-R3-3 polypeptide (purchased from GL Biochem, Cat. No. 406676) (human); assay: ELISA, antibody 1 nM
T3 construct: Printed as Val539-Val588; also called hMSLN-R3-3
T3 peptide: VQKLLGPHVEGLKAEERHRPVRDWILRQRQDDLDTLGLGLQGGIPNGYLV

[6] = target: T1, human MSLN-R2-his protein; assay: ELISA, antibody 10 nM
[7] = target: T2, human MSLN-R3-his protein; assay: ELISA, antibody 10 nM
[8] = target: T1, human MSLN-R2-his protein; assay: ELISA, antibody 0.1 nM
[9] = target: T1, human MSLN-R2-his protein; assay: ELISA, antibody 100 nM
[10] = target: T2, human MSLN-R3-his protein; assay: ELISA, antibody 0.1 nM
[11] = target: T2, human MSLN-R3-his protein; assay: ELISA, antibody 100 nM
[12] = target: T1, human MSLN-R2-his protein; assay: ELISA, antibody 0.01 nM
[13] = target: T2, human MSLN-R3-his protein; assay: ELISA, antibody 0.01 nM
[14] = target: T1, human MSLN-R2-his protein; assay: ELISA, antibody 0.001 nM
[15] = target: T2, human MSLN-R3-his protein; assay: ELISA, antibody 0.001 nM
[16] = target: T1, human MSLN-R2-his protein; assay: ELISA, antibody 0.0001 nM
[17] = target: T2, human MSLN-R3-his protein; assay: ELISA, antibody 0.0001 nM
[18] = target: T1, human MSLN-R2-his protein; assay: ELISA, antibody 0 nM (blank)
[19] = target: T2, human MSLN-R3-his protein; assay: ELISA, antibody 0 nM (blank)
[20] = target: T4, human MSLN-R3-his protein (human, UniProt Q13421 487-598); assay: ELISA, coated antigen, 1 nM antibody
T4 construct: also called hMSLN-R3-his; not shown: histidine tag

[21] = target: T4, human MSLN-R3-his protein; assay: ELISA, coated antigen, 10 nM antibody
[22] = target: T5, human MSLN-R2-his protein (human, UniProt Q13421 391-486); assay: ELISA, coated antigen, 20 nM antibody
T5 construct: also called hMSLN-R2-his; not shown: histidine tag

[23] = target: T4, human MSLN-R3-his protein; assay: ELISA, coated antigen, 20 nM antibody
[24] = target: T4, human MSLN-R3-his protein; assay: ELISA, coated antigen, 0.1 nM antibody
[25] = target: T4, human MSLN-R3-his protein; assay: ELISA, coated antigen, 100 nM antibody
[26] = target: T5, human MSLN-R2-his protein; assay: ELISA, coated antigen, 0.2 nM antibody
[27] = target: T4, human MSLN-R3-his protein; assay: ELISA, coated antigen, 0.2 nM antibody
[28] = target: T4, human MSLN-R3-his protein; assay: ELISA, coated antigen, 0.01 nM antibody
[29] = target: T4, human MSLN-R3-his protein; assay: ELISA, coated antigen, 0.001 nM antibody
[30] = target: T4, human MSLN-R3-his protein; assay: ELISA, coated antigen, 0.0001 nM antibody
[31] = target: T4, human MSLN-R3-his protein; assay: ELISA, coated antigen, 0 nM antibody (blank)
[32] = target: T6, chimeric human MSLN-R3 / chicken MSLN-R1-2 protein on HEK293T cells (clone A5) (chicken; human); assay: FACS, HEK293T-hR3/chickR1-2-A5 cells, antibody 20 nM
T6 construct: range 327-514; Human R1-R2 replaced by chicken R1-R2; also called HEK293T-chickR1-2/hR3-A5; HEK293T-hR3/chickR1-2-A5

[33] = target: T6, chimeric human MSLN-R3 / chicken …; assay: FACS, HEK293T-hR3/chickR1-2-A5 cells, antibody 0.2 nM

T6 sequence (Q13421 495-614, change not shown): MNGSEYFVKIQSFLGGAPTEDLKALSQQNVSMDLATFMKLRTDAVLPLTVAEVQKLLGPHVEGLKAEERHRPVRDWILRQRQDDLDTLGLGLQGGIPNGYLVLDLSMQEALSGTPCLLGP

B1: Tab020 (YP223, rabbitIgG1) (antibody, V domains shown)
VH: QEQLEESGGDLVQPEGSLTLTCKASGLDFSSSYWICWVRQAPGKGLEWIGCRHTFTANTWSASWVNGRFTISRSTSLGTVDLKMTSLTAADTATYFCARDESNNDGWDFKLWGPGTLVTVSS
VL: AYDMTQTPASVSAAVGGTVTIKCQASQSISNYLAWYQQKPGQPPKLLIYQASTLAPGVSSRFKGSGSGTEFTLTISGVECADAATYYCQQGYTSSNVENVFGGGTGVVVGD
notes: also called YP223 rabbit IgG1 antibody; rabbit anti-human MSLN antibody (Tab020)
OD450 nm [1]: 1.49
OD450 nm [2]: 0.05
OD450 nm [3]: 1.49
OD450 nm [4]: 0.05
OD450 nm [5]: 0.09
OD450 nm [6]: 2.01
OD450 nm [7]: 0.05
OD450 nm [8]: 0.2
OD450 nm [9]: 2.5
OD450 nm [10]: 0.05
OD450 nm [11]: 0.05
OD450 nm [12]: 0.07
OD450 nm [13]: 0.05
OD450 nm [14]: 0.05
OD450 nm [15]: 0.05
OD450 nm [16]: 0.05
OD450 nm [17]: 0.05
OD450 nm [18]: 0.05
OD450 nm [19]: 0.05

B2: Tab106 (YP218, hIgG1) (antibody, V domains shown)
VH: QQQLEESGGGLVKPEGSLTLTCKASGFDLGFYFYACWVRQAPGKGLEWIACIYTAGSGSTYYASWAKGRFTISKASSTTVTLQMTSLAAADTATYFCARSTANTRSTYYLNLWGPGTLVTVSS
VL: DVVMTQTPASVSEPVGGTVTIKCQASQRISSYLSWYQQKPGQRPKLLIFGASTLASGVPSRFKGSGSGTEYTLTISDLECADAATYYCQSYAYFDSNNWHAFGGGTEVVVRT
notes: also called YP218 human IgG1 antibody
OD450 nm [20]: 0.22 OD450 nm
OD450 nm [21]: 1.04 OD450 nm
OD450 nm [22]: 1.44 OD450 nm
OD450 nm [23]: 1.89 OD450 nm
OD450 nm [24]: 0.07 OD450 nm
OD450 nm [25]: 1.81 OD450 nm
OD450 nm [26]: 0.13 OD450 nm
OD450 nm [27]: 0.87 OD450 nm
OD450 nm [28]: 0.05 OD450 nm
OD450 nm [29]: 0.05 OD450 nm
OD450 nm [30]: 0.05 OD450 nm
OD450 nm [31]: 0.05 OD450 nm

The remaining lines, values ahead:

OD450 nm [1]: 0.05
OD450 nm [2]: 0.62
OD450 nm [3]: 0.05
OD450 nm [4]: 0.62
OD450 nm [5]: 0.98
OD450 nm [6]: 0.11
OD450 nm [7]: 1.75
OD450 nm [8]: 0.05
OD450 nm [9]: 0.7
OD450 nm [10]: 0.12
OD450 nm [11]: 2.29
OD450 nm [12]: 0.04
OD450 nm [13]: 0.06
OD450 nm [14]: 0.04
OD450 nm [15]: 0.05
OD450 nm [16]: 0.04
OD450 nm [17]: 0.05
OD450 nm [18]: 0.05
OD450 nm [19]: 0.05
B3: Tab106 (YP218, hIgG1) (antibody, V domains shown)
VH: B2 VH
VL: B2 VL
notes: also called YP218 human IgG1 antibody; anti-human MSLN-R3 antibody (Tab106)

MFI [32]: 17900
MFI [33]: 767
B4: Tab106 (YP218, hIgG1) (antibody, V domains shown)
VH: B2 VH
VL: B2 VL
notes: as for B2
